# Source: patent US8058228B2, “Leptin peptide antagonists” (Boston Biomedical Research Institute, priority 2004, dated 2011)
# Biological target: T1, OB-R (Homo sapiens, UniProt P48357)
# T1 construct: After confirming via Western that the primary EEC and ESC and endometrial cell lines utilized herein had OB-R; endogenous in cells; host or cells: primary human EEC and ESC; Ishikawa (ECACC 9832301) and HES cell lines
# T1 sequence (P48357 22-1165): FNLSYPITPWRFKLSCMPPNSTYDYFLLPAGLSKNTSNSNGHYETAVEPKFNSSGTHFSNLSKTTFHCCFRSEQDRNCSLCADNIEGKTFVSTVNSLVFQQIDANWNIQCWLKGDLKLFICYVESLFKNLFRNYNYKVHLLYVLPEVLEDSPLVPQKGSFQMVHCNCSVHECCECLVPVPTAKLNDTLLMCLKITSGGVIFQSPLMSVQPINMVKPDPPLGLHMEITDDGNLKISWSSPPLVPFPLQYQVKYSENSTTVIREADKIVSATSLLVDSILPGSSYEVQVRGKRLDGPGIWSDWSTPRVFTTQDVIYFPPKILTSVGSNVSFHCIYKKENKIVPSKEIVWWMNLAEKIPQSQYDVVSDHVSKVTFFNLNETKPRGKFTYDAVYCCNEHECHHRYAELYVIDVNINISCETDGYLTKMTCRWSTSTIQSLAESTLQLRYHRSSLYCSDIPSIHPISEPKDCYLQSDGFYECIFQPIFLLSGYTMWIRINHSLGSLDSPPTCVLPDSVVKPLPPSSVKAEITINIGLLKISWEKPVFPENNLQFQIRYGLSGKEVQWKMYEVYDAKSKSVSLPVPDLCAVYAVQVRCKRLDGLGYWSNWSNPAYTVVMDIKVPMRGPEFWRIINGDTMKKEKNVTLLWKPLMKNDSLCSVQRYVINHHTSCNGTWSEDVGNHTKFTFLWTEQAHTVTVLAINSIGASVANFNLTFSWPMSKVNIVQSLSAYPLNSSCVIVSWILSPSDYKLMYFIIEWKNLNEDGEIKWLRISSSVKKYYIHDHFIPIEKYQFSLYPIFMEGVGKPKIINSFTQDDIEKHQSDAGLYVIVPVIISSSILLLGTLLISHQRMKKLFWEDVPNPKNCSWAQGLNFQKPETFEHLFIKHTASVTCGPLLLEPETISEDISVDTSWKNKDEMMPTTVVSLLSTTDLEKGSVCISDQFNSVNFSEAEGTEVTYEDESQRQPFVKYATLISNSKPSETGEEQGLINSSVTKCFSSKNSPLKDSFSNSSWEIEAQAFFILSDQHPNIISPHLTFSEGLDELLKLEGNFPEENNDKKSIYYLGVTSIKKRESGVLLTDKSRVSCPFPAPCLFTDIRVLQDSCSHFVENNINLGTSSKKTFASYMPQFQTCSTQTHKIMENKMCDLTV
# Experiment: LIF levels in conditioned medium of human endometrial cells (ELISA)
# Assay type: cell-based
# Settings: for effect on leptin-induced LIF levels in conditioned medium: leptin 3 nM plus inhibitor or control
# Method: Primary human endometrial cells (ESC and EEC) were cultured for 5-9 days in DMEM-F12 medium containing 5% fetal bovine serum (FBS), 5 μg/ml insulin, 1% amphopthericin B, 100 μg/ml streptomycin and 100 U/ml penicillin until they were 80% confluent. Two types of endometrial epithelial cell lines, HES (originally derived from a benign proliferative endometrium) and Ishikawa (human endometrial epithelial adenocarcinoma, ECACC 9832301, Wiltshire, England) were cultured under the same conditions described above. The cells were washed twice with 100 mM phosphate saline buffer (PBS), pH 7.2 and cultured for additional 2 days in the same medium but without FBS (basal medium). Cells were washed as described before and cultured in basal medium containing leptin (0, 3, 10 or 62 nM) or IL-1β (0.6, 3 and 10 nM).
# The anti-OB-R antibody (10 and 20 μg/ml) and LPA-2, a specific inhibitor of OB-R (3, 120, 300 nM or 30 μM) were used to assess whether leptin-induced effects were regulated primarily by the OB-R. Non-specific species-matched IgGs to the OB-R antibody and a scrambled version of LPA-2 (LPA-2Sc) served as negative controls (Gonzalez and Leavis, Endocrine 21: 185-195 (2003)). Inhibitors of IL-1R were used (monoclonal antibody anti-IL-1R tl and IL-1Ra) to assess whether leptin activated IL-1 induced signaling pathways or just activated similar components responsible for LIF/LIF-R expression. Treatment with the cytokine, inhibitor or the two combined was implemented for 5, 15, 30 and 60 min, and 24 and 48 h. The cells were prepared for Western blot analysis. The conditioned media was collected, lyophilized and stored at −80° C. until analysis for LIF, IL-1β and IL-1Ra by ELISA could be performed. Duplicate wells were run for each treatment and the experiments repeated at least three times with different cell preparations.
# Conditioned media from cells cultured under the experimental conditions described above were used to quantify the secretion of LIF, IL-1β and IL-1Ra by ELISA (Quantikine®, R&D Systems). The experiments were replicated three times and standards, controls, and samples were assayed in duplicate. Cytokine concentrations as determined by ELISA were within the range of the standard curve and were expressed in pg/ml/mg protein. The intra- and interassay coefficients of variation were between 5-8% and 8.5-10%, respectively. The lowest detectable concentration of each cytokine by ELISA was LIF (9 pg/ml), IL-1 (0.11 pg/ml) and IL-1Ra (15.6 pg/ml). These concentrations are similar to those reported by the manufacturer. LIF-ELISA is reported by the manufacturer to have a sensitivity of less than 8 pg/ml for both natural and recombinant human LIF and 100% specificity (no significant cross-reactivity or interference with a diversity of human and mouse cytokines and growth factors was observed). The performance characteristics for human IL-1β and IL-1Ra ELISAs reported are: 100% specificity, sensitivity 0.1 pg/ml and 14 pg/ml, respectively.
effect on leptin-induced LIF levels in conditioned medium (Ishikawa cells),LIF levels after leptin (HES cells),"LIF levels in conditioned medium after leptin (Ishikawa cells, leptin 3 nM)","LIF levels after leptin (primary EEC, 24 h, dose-dependent)",Substance
reduced LIF levels,–,–,–,"SRNVIQISNDLENLRDLLHVLAFSKS [LPA-2, 26 amino acid peptide, residues 70-95 of helix III of the human leptin molecule; leptin peptide antagonist]"
not different,–,–,–,"VAEVLNRSDLIQRISFSLDLNNSKLH [LPA-2Sc, scrambled version of LPA-2, negative control, reference compound]"
–,No response,increased the levels of LIF,increased level of LIF,"leptin: human recombinant leptin (R&D Systems), OB-R ligand used as stimulus"
